In patent US20240293570A1 (priority 2021, published 2024):
Read-outs that look alike come from different tables or passages of the source. *1 amine or outer side, *2 acyl side, *3 side chain or, on linkers, in order; H or OH if unused. Where a SMILES comes first, the peptide text is derived from it. [ ]: non-standard residue; d: D form. The star is where a group is joined. MaleimidoPEG4propanoyl = O=C1C=CC(=O)N1CCOCCOCCOCCOCCC(=O)*; X2 = CO[C@@H]([C@H]1CCCN1[*:1])[C@@H](C)C(=O)[*:2]; Dil = CC[C@H](C)[C@H](NC)[C@@H](CC(=O)O)OC; X1 = O=C(CN1CCOCCN([*:1])CCOCC1)[*:2]; PABC = O=C(OCc1ccc(N[*:1])cc1)[*:2]; X3 = C[C@@H](N*)[C@@H](O)c1ccccc1; NMeV = CN[C@H](C(=O)O)C(C)C

Legend:
[1] = Stability (placement) test of ADCs at 40° C. in dark for 14 days, DAR and polymer content; assay type: physicochemical
Experimental: (§1) Polymers (high molecular components) of the antibody-drug conjugates were tested using molecular exclusion high-performance liquid chromatography (SE-HPLC). A Biocore SEC chromatographic column (7.8×300 mm, […]) was used, and the mobile phase was 50 mM phosphate containing 300 mM sodium chloride (pH 6.8), with a flow rate of 0.5 mL/min. Samples of […] and 10 μl were injected. […] The polymer content of an antibody-drug conjugate was calculated using an area normalization method.
(§2) A drug-antibody conjugating ratio (also known as drug-antibody ratio, abbreviated as DAR) of the antibody-drug conjugate was tested using reversed-phase high-performance liquid chromatography-mass chromatography (RP-HPLC-MS). The ADC sample was diluted with 50 mmol/L Tris buffer (pH 8.0) to 1 mg/ml. A fresh dithiothreitol (DTT) stock solution was added to achieve a final DTT concentration of 50 mmol/L. Incubation was performed at 37° C. for 30 minutes. A PLRP-S chromatographic column (1000 Å pores, 2.1×50 mm, 5) μm) was used, and the column temperature was 70° C. The flow rate was 0.25 mL/min. […] of sample was injected; the mobile phase A was an aqueous solution of 0.1% formic acid (V/V) and 0.025% trifluoroacetic acid (V/V), and the mobile phase B was an acetonitrile solution of 0.1% formic acid (V/V) and 0.025% trifluoroacetic acid (V/V); the running time was 0-3 minutes, where 27% of mobile phase B ran for 3 minutes, and the mobile phase B ran from 27% to 49% within 3-25 minutes, from 49% to 95% within 25-26 minutes, at 95% within […], from 95% to 27% within 30-31.5 minutes, and at 27% for 31.5-45 minutes. […] Mass spectrometry drying gas was at a temperature of 350° C. and a flow rate of 7.0 L/min, the pressure of an atomizer was 40 psi, capillary voltage was positive 3000V and negative 3000V, and the mass range was 500-1600 m/z. The molecular weight of each mass spectrometry peak (ranging from 20000 to 70000) was calculated by deconvolution and compared with light and heavy chain molecular weights of un-conjugated antibodies to calculate a drug load at each peak, so as to determine the load of a corresponding ultraviolet peak. Area percentages of heavy and light chain ultraviolet peaks were calculated through integration, and a weighted average DAR of the antibody-drug conjugate was calculated by combining the area percentages with the drug load distribution of each peak.
Stability testing method: The stability of the obtained ADCs was tested for 14 days. The ADCs were placed at 40° C. in dark. Sampling points were days 0, 7, and 14. The polymer content and DAR value of samples at different sampling points were tested according to the method in Experimental Example 1.

[2] = Polymer (high molecular component) content of antibody-drug conjugates by SE-HPLC; assay type: physicochemical; settings: ADC with Her2 antibody
Experimental: as §1

[3] = Naked antibody content of antibody-drug conjugates by hydrophobic interaction chromatography (HIC); assay type: physicochemical; settings: ADC with Her2 antibody
Experimental: The content of naked antibodies in the antibody-drug conjugate was tested using hydrophobic interaction chromatography (HIC). A Biocore HIC-Butyl chromatographic column (4.6×150 mm, 5 μm) was used. The mobile phase A was a 100 mM phosphate aqueous solution containing 2 M ammonium sulfate (pH 7.0), and the mobile phase B was a 100 mM phosphate aqueous solution (pH 7.0): isopropanol=80:20 (V/V). Samples of 50 μg and 10 μl were injected. The mobile phase A at the flow rate of 1 mL/min ran at 100% for 3 minutes. Within 3-25 minutes, the mobile phase B ran from […] to 100%, while the mobile phase B decreased to 0% at 25.1 and ran to 30 minutes. […] The naked antibody content of the antibody-drug conjugate was calculated using an area normalization method based on the retention time of a naked antibody peak located by the antibody of the antibody-drug conjugate.

[4] = assay type: physicochemical; settings: ADC with Her2 antibody, RP-HPLC-MS
Experimental: as §2

Compound	DAR ([1]; Day 0, 40° C. in dark)	Polymer content (%) ([1]; Day 0, 40° C. in dark)	DAR ([1]; Day 7, 40° C. in dark)	Polymer content (%) ([1]; Day 7, 40° C. in dark)	DAR ([1]; Day 14, 40° C. in dark)	Polymer content (%) ([1]; Day 14, 40° C. in dark)	Polymer content (%) [2] [%]	Naked antibody content (%) [3] [%]	DAR [4]
CCc1c2c(nc3ccc(O)cc13)-c1cc3c(c(=O)n1C2)CCC(=O)[C@@]3(CC)OC(=O)N(C)CCN(C)C(=O)COCNC(=O)CNC(=O)[C@H](Cc1ccccc1)NC(=O)CNC(=O)CNC(=O)CN1CCOCCN(C(=O)CCN2C(=O)C=CC2=O)CCOCC1 [Example 23]	4.12	0.41	4.15	0.45	4.16	0.56	0.41	0.00	4.12
C=C1C[C@@H]2CC[C@@]34C[C@H]5OC6C(C[C@H]7CC[C@H](CC(=O)C[C@@H]8[C@@H](OC)[C@@H](C[C@H](O)CNC(=O)CNC(=O)[C@H](Cc9ccccc9)NC(=O)CNC(=O)CNC(=O)CCC(=O)N9CCOCCN(C(=O)CCN%10C(=O)C=CC%10=O)CCOCC9)O[C@H]8C[C@H]8O[C@@H](CC[C@@H]1O2)C[C@@H](C)C8=C)O[C@@H]7[C@@H]6O3)[C@H]5O4 [Example 26]	3.92	0.70	3.92	0.72	3.96	0.66	0.70	1.26	3.92
CC[C@@]1(O)C(=O)OCc2c1cc1n(c2=O)Cc2c-1nc1cc(F)c(C)c3c1c2[C@@H](NC(=O)COCNC(=O)CNC(=O)CNC(=O)CNC(=O)CN1CCOCCN(C(=O)CCN2C(=O)C=CC2=O)CCOCC1)CC3 [Example 28]	3.84	0.56	3.89	0.57	3.82	0.65	0.56	2.76	3.84
C=C1C[C@@H]2CC[C@@]34C[C@H]5OC6C(O[C@H]7CC[C@H](CC(=O)C[C@@H]8[C@@H](OC)[C@@H](C[C@H](O)CNC(=O)CNC(=O)[C@H](Cc9ccccc9)NC(=O)CNC(=O)CNC(=O)CN9CCOCCOCCN(C(=O)CCCCCN%10C(=O)C=CC%10=O)CCOCCOCC9)O[C@H]8C[C@H]8O[C@@H](CC[C@@H]1O2)C[C@@H](C)C8=C)O[C@@H]7[C@@H]6O3)[C@H]5O4 [Example 39]	4.30	0.90	4.32	0.92	4.30	0.98	0.90	0.00	4.30
C=C1C[C@@H]2CC[C@@]34C[C@H]5OC6C(O[C@H]7CC[C@H](CC(=O)C[C@@H]8[C@@H](OC)[C@@H](C[C@H](O)CNC(=O)CNC(=O)[C@H](Cc9ccccc9)NC(=O)CNC(=O)CNC(=O)CN9CCOCCOCCN(C(=O)CCCC%10C(=O)C=CC%10=O)CCOCCOCC9)O[C@H]8C[C@H]8O[C@@H](CC[C@@H]1O2)C[C@@H](C)C8=C)O[C@@H]7[C@@H]6O3)[C@H]5O4 [Example 41]	3.84	1.52	3.81	1.53	3.81	1.59	1.52	5.05	3.84
C=C1C[C@@H]2CC[C@@]34C[C@H]5OC6C(O[C@H]7CC[C@H](CC(=O)C[C@@H]8[C@@H](OC)[C@@H](C[C@H](O)CNC(=O)CNC(=O)[C@H](Cc9ccccc9)NC(=O)CNC(=O)CN9CCOCCOCCN(C(=O)CCCC%10C(=O)C=CC%10=O)CCOCCOCC9)O[C@H]8C[C@H]8O[C@@H](CC[C@@H]1O2)C[C@@H](C)C8=C)O[C@@H]7[C@@H]6O3)[C@H]5O4 [Example 42]	4.12	1.25	4.11	1.28	4.08	1.26	1.25	1.06	4.12
C=C1C[C@@H]2CC[C@@]34C[C@H]5OC6C(C[C@H]7CC[C@H](CC(=O)C[C@@H]8[C@@H](OC)[C@@H](CC(O)CNC(=O)CNC(=O)[C@H](Cc9ccccc9)NC(=O)CNC(=O)CNC(=O)CN9CCN%10CCN(CCN(CC(=O)NCC(=O)NCC(=O)N[C@@H](Cc%11ccccc%11)C(=O)NCC(=O)NCOCC(=O)N[C@H]%11CCc%12c(C)c(F)cc%13nc%14c(c%11c%12%13)Cn%11c-%14cc%12c(c%11=O)COC(=O)[C@]%12(O)CC)CC9)CCN(C(=O)CCCCCN9C(=O)C=CC9=O)CC%10)O[C@H]8C[C@H]8O[C@@H](CC[C@@H]1O2)C[C@@H](C)C8=C)O[C@@H]7[C@@H]6O3)[C@H]5O4 (stereo partly drawn) [Example 59]	3.83	1.18	3.83	1.22	3.78	1.27	1.18	2.57	3.83
CCc1c2c(nc3ccc(O)cc13)-c1cc3c(c(=O)n1C2)COC(=O)[C@@]3(CC)OC(=O)N(C)CCN(C)C(=O)COCNC(=O)[C@H](CC(N)=O)NC(=O)[C@H](C)NC(=O)[C@H](C)NC(=O)CN1CCOCCN(C(=O)CCN2C(=O)C=CC2=O)CCOCC1 [Example 83]	3.96	0.56	3.98	0.59	3.96	0.58	0.56	2.23	3.96
CC[C@H](C)[C@@H]([C@@H](CC(=O)N1CCC[C@@H]1[C@H](OC)[C@@H](C)C(=O)N[C@H](C)[C@@H](O)c1ccccc1)OC)N(C)C(=O)[C@@H](NC(=O)[C@H](C(C)C)N(C)C(=O)OCc1ccc(NC(=O)CNC(=O)[C@H](Cc2ccccc2)NC(=O)CNC(=O)CNC(=O)CN2CCOCCN(C(=O)CCOCCOCCOCCOCCN3C(=O)C=CC3=O)CCOCC2)cc1)C(C)C [Example 85] (MaleimidoPEG4propanoyl-[X1]GGFG[PABC][NMeV]V[Dil][X2]-X3)	4.04	1.43	4.08	1.48	4.00	1.45	1.43	1.98	4.04
